From patent publication US20200339681A1

Target: heparan sulfate proteoglycan (HSPG) on HeLa cells
Test: cell-based or functional assay

B1: CT-59 (antibody, part only; not given: TMab4 heavy chain variable domain, V domains shown, part only)
VL: DIQMTQSPSSLSASVGDRVTITCKSSQSLLNSRDGKNYLAWYQQKPGKAPKLLIYWASTRESGVPSRFSGSGSGTDFTLTISSLQPEDFATYFCQQYWYWMYTFGQGTKVEIKR
Alexa488 fluorescence intensity in HeLa cells (confocal microscopy, 1 µM, 6 h): 20%
